From patent US20150376282A1

Key:
2F8-HG-Y275A (human) = assay: non-covalent nano-ESI MS, 0.01-10 µM, self-association
2F8-HG-L236V (human) = assay: as above
2F8-HG (human) [1] = assay: non-covalent nano-ESI MS, monomer/dimer equilibrium (CH3-CH3 dimerisation of half-molecules)
2F8-HG (human) [2] = assay: non-covalent nano-ESI MS, 1 µM, self-association
2F8-HG-F405A (human) = assay: non-covalent nano-ESI MS, 0.01-10 µM, self-association

**Q.** With 2F8-HG-Y275A (antibody) as the molecule, how does the percent monomeric at low concentrations (2F8-HG-Y275A (human)) read?
**A.** 100%

**Q.** How did the percent monomeric at low concentrations (2F8-HG-L236V (human)) turn out when 2F8-HG-L236V (antibody) was run?
**A.** 100%

**Q.** Which Kd (2F8-HG (human) [1]) does the source give for 2F8-HG (antibody) here?
**A.** 50 nM

**Q.** What about the percentage molecules present as monomers (2F8-HG (human) [2]) of the same molecule?
**A.** 15%

B1: 2F8-HG-F405A (antibody, part only; not given: 2F8 VH and light chain, part only)
heavy, part: ASTKGPSVFPLAPCSRSTSESTAALGCLVKDYFPEPVTVSWNSGALTSGVHTFPAVLQSSGLYSLSSVVTVPSSSLGTKTYTCNVDHKPSNTKVDKRVAPEFLGGPSVFLFPPKPKDTLMISRTPEVTCVVVDVSQEDPEVQFNWYVDGVEVHNAKTKPREEQFNSTYRVVSVLTVLHQDWLNGKEYKCKVSNKGLPSSIEKTISKAKGQPREPQVYTLPPSQEEMTKNQVSLTCLVKGFYPSDIAVEWESNGQPENNYKTTPPVLDSDGSFALYSRLTVDKSRWQEGNVFSCSVMHEALHNHYTQKSLSLSLGK
**Q.** With B1 as the molecule, how does the percent monomeric at low concentrations (2F8-HG-F405A (human)) read?
**A.** 100%
